Measurements as given in the supplement of paper PMC10724198.
± gives the standard deviation of the averaged measurements.

Tested on: Saccharomyces cerevisiae
Assay: protein stability index of tFT-peptide fusion (C-terminal peptide) (PSI (0-1 scale)); higher = more stable (slower turnover)
Details: genetic background: wild type; temperature: 30 C
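Also: PSI is a weighted mean of sequencing reads over stability bins, variants kept only with over 10 reads, mCherry proximal and sfGFP distal, peptide attached via GGGS linker.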

Sequence | protein stability index
LPGAEASRCTST | 0.657 ± 0.041
LASSLTALRYPP | 0.742 ± 0.064
YCSIVRSLGSPL | 0.698 ± 0.065
HPVLGPNRVINI | 0.71 ± 0.087
FLRGRTPLTAGD | 0.582 ± 0.022
PLHPPPPPPPHP | 0.717 ± 0.064
RSWIDNKMKVNV | 0.721 ± 0.0076
PPSTSPTLTSAR | 0.722 ± 0.016
GGWCGGSGRGAN | 0.63 ± 0.04
PLPFPPPLPSHR | 0.767 ± 0.11
FLLFASPPPRPL | 0.715 ± 0.017
TFENLFRLPWFK | 0.699 ± 0.052
EGQARRAGRQGR | 0.7349 ± 0.0053
RGCTVHSLNSSY | 0.6757 ± 0.0022
GPKPHREKKSIN | 0.73 ± 0.045
ERVMMKNDSIVT | 0.623 ± 0.1
SEGSRGYLLEIQ | 0.69 ± 0.029
GTRAGGGWSCES | 0.711 ± 0.02
DKSIGIYIVRSH | 0.731 ± 0.012
EARRHTKHPGKI | 0.753 ± 0.066
RRPGGQGHPNAG | 0.752 ± 0.023

Sequence | protein stability index
YRARTADRPRDQ | 0.729 ± 0.039
STLAPRVYLRLR | 0.676 ± 0.032
DCVWGLERVLLL | 0.756 ± 0.016
VSGSTGVWCRWG | 0.668 ± 0.048
HIPPFSPCPPTG | 0.707 ± 0.02
PGIVTGCGNTFV | 0.708 ± 0.022
PLSQLPAFSPVS | 0.687 ± 0.0095
LGSGVQGEGRGW | 0.678 ± 0.042
QKNKKRQTTYES | 0.662 ± 0.0069
RASRGLGWRRND | 0.66 ± 0.015
AGHTTVTNPLPQ | 0.738 ± 0.079
FVSSSVFFVFSF | 0.627 ± 0.058
HITMERTERTKY | 0.7145 ± 0.0057
IALWLYALSLAF | 0.532 ± 0.016
LFPLPHPLPVSL | 0.6146 ± 0.0053
HPPASPPHSPRS | 0.63 ± 0.07
SSPLVHWFSYLS | 0.682 ± 0.023
KKKKKKKKTKKR | 0.637 ± 0.044
LHPRPPLFLHPL | 0.692 ± 0.015
ASRWVLLVGGGV | 0.652 ± 0.056
SVETVSSSSVAD | 0.656 ± 0.057

Sequence | protein stability index
GDDRGTSKCCLT | 0.702 ± 0.068
FYGFHPLALPRP | 0.725 ± 0.035
GDIRLTGLSIVS | 0.638 ± 0.031
IACDPNNRKDFT | 0.627 ± 0.008
TGSLSSTCPPAT | 0.717 ± 0.075
HPPPVLSPPLSP | 0.7107 ± 0.0033
FFSGYVVSTRHM | 0.702 ± 0.089
KRGVVGFGKGGG | 0.6654 ± 0.0027
VFGDFAIGGLSG | 0.711 ± 0.077
RKNHKKNHKTRI | 0.65 ± 0.087
PSHPPLLLPLLL | 0.714 ± 0.022
GLLCSKTCCAGV | 0.6453 ± 0.0024
YFGGMGARGRER | 0.687 ± 0.0081
PLPPPGPPRLSR | 0.723 ± 0.0075
RGVGCDMGGDGG | 0.65 ± 0.042
QVGSLEIFLCFI | 0.6323 ± 0.0016
RKSTVILLLTDT | 0.668 ± 0.054
HPPPDPPFLAST | 0.611 ± 0.042
GVDAGGVFSRLC | 0.639 ± 0.018
EKKLKNEEKKEI | 0.717 ± 0.04
GYSPMGFSFFPV | 0.673 ± 0.047

Sequence | protein stability index
EWVSGWIVRWWR | 0.679 ± 0.076
KEFFGGSTDFRV | 0.729 ± 0.18
SKVLRRLEPTIV | 0.603 ± 0.04
PFSSPPPPCRSC | 0.718 ± 0.023
RLPLRVTGIPVD | 0.6668 ± 0.0016
GGGRGGGFSGGV | 0.655 ± 0.014
ERKDPNTNKVKS | 0.678 ± 0.0083
PLSPSCCLRRPL | 0.777 ± 0.24
SSPIFPDPSHVS | 0.6058 ± 0.0054
PATRHSRLPPAS | 0.67 ± 0.018
RLGERGAKPQGR | 0.635 ± 0.0074
AQDECVMVWYVG | 0.651 ± 0.013
FSLSRWFDEIAL | 0.6438 ± 0.00075
KQLEKYKDIRRK | 0.665 ± 0.061
RYSPFSFLASLP | 0.732 ± 0.049
GSRRSWWVLCLG | 0.485 ± 0.072
TNKKKNRNKKAK | 0.657 ± 0.073
IKNEEKKLIESQ | 0.76 ± 0.073
